Reference: patent US20230340555A1, “PRODUCTION OF GLYCOSYLATED CANNABINOIDS” (WILLOW BIOSCIENCES, INC., priority 2020, published 2023)

B1: AtUGT76C4: UDP-glycosyl transferase from Arabidopsis thaliana, amino acid sequence SEQ ID NO: 12 (protein, listed as Arabidopsis thaliana)
chain: MEKSNGLRVILFPLPLQGCINPMIQLAKILHSRGFSITVIHTCFNAPKASSHPLFTFIQIQDGLSETETRTRDVKLLITLLNQNCESPVRECLRKLLQSAKEEKQRISCLINDSGWIFTQHLAKSLNLMRLAFNTYKISFFRSHFVLPQLRREMFLPLQDSEQDDPVEKFPPLRKKDLLRILEADSVQGDSYSDMILEKTKASSGLIFMSCEELDQDSLSQSREDFKVPIFAIGPSHSHFPASSSSLFTPDETCIPWLDRQEDKSVIYVSIGSLVTINETELMEIAWGLSNSDQPFLWVVRVGSVNGTEWIEAIPEYFIKRLNEKGKIVKWAPQQEVLKHRAIGGFLTHNGWNSTVESVCEGVPMICLPFRWDQLLNARFVSDVWMVGIHLEGRIERDEIERAIRRLLLETEGEAIRERIQLLKEKVGRSVKQNGSAYQSLQNLINYISSF
B2: CsUGT73C6: UDP-glycosyl transferase from Cannabis sativa, amino acid sequence SEQ ID NO: 16 (protein, listed as Cannabis sativa)
chain: MASEPYKLHLIVIPFMAPGHFIPMADMARKLAEHGAMITLITLPVIAARIRPIIEQATENSNLKIQLVQVSLPLHEFGLPEGCDTVDLVPSRNLLLSFFIALDELQQPIEQVVSELKPRPSCIIADKHLPWTAEIATKFGIPRVLFDGMSCFSLLCNHMIRKSQVHLSVPMSVPFVVPGMPDHLEFTRNQLAADLYPNLEFGQKFHDRIRESEEGADGFLVNSFEELEWKYVEGYRKEKVGKAWCIGPVSLFNKTKLEVAQRGNNPAGAVDEKQCTEWLDSWPKSCVVYACLGSVSRLLIPQMIELGVALEASNKPFIWVIRGYDQEEEIEKWISESGFKERTKSRALLIFGWAPQVLILSHSSVGGFLTHCGWNSTLEGITYGKPMITWPMFAEQFYNQKLIVQVLKVGESVGPKFVVPYGREEEFGVFVLSKDILEAIEKVMAQDKEGEERRERVKRLSDMAQKAIEEGGSSYLDMKLFIEDIRNLHIS
B3: AtUGT88A1: UDP-glycosyl transferase from Arabidopsis thaliana, amino acid sequence SEQ ID NO: 6 (protein, listed as Arabidopsis thaliana)
chain: MGEEAIVLYPAPPIGHLVSMVELGKTILSKNPSLSIHIILVPPPYQPESTATYISSVSSSFPSITFHHLPAVTPYSSSSTSRHHHESLLLEILCFSNPSVHRTLFSLSRNFNVRAMIIDFFCTAVLDITADFTFPVYFFYTSGAACLAFSFYLPTIDETTPGKNLKDIPTVHIPGVPPMKGSDMPKAVLERDDEVYDVFIMFGKQLSKSSGIIINTFDALENRAIKAITEELCFRNIYPIGPLIVNGRIEDRNDNKAVSCLNWLDSQPEKSVVFLCFGSLGLFSKEQVIEIAVGLEKSGQRFLWVVRNPPELEKTELDLKSLLPEGFLSRTEDKGMVVKSWAPQVPVLNHKAVGGFVTHCGWNSILEAVCAGVPMVAWPLYAEQRFNRVMIVDEIKIAISMNESETGFVSSTEVEKRVQEIIGECPVRERTMAMKNAAELALTETGSSHTALTTLLQSWSPK
B4: HaUGT76G1L: UDP-glycosyl transferase from Helianthus annuus, amino acid sequence SEQ ID NO: 2 (protein, listed as Helianthus annuus)
chain: METQTETTNTVRRNRRIIFFPLPYQGHINPMLQLANLLYSKGFSITILHTNFNKPKTSNYPHFTFKFILDNDPHDGRYSNLPLHGMGAFNRVFVFNEDGADELRHELELLMLASKEDDEHVSCLITDALWHFTQSVADSLSLPRLVLRTSSLFSFLIYASIPLLDDRGYLSLSDNTMALILDGLGYHDLSDNKRLEEQVEEFPMLKVKDIVKMGFKREKDGAGGMIDNMVKQTKTSSGIIWNSFKELEESELETIRRDIPAPSFPIPFAKHFTASSSSLLEHDRSFFPWLDQQPPKSVVYVSFGSVAQVEEKHFMEMVHGLVDSKQLFLWVVRPGFVSGSTWLEPLPDGFPGERGRIVKWAPQQEVLGHEAIGAFWTHGGWNSTLESVCEGVPMICSPFWGDQPLDARYVSDVWKVGVYLENGWKREEITGAIRRVMTDEEMRERARVLKQKLDVSLMKGGSSYESVESLVAYVSSF
B5: AtUGT76E12: UDP-glycosyl transferase from Arabidopsis thaliana, amino acid sequence SEQ ID NO: 14 (protein, listed as Arabidopsis thaliana)
chain: MQVLGMEEKPARRSVVLVPFPAQGHISPMMQLAKTLHLKGFSITVVQTKFNYFSPSDDFTHDFQFVTIPESLPESDFKNLGPIQFLFKLNKECKVSFKDCLGQLVLQQSNEISCVIYDEFMYFAEAAAKECKLPNIIFSTTSATAFACRSVFDKLYANNVQAPLKETKGQQEELVPEFYPLRYKDFPVSRFASLESIMEVYRNTVDKRTASSVIINTASCLESSSLSFLQQQQLQIPVYPIGPLHMVASAPTSLLEENKSCIEWLNKQKVNSVIYISMGSIALMEINEIMEVASGLAASNQHFLWVIRPGSIPGSEWIESMPEEFSKMVLDRGYIVKWAPQKEVLSHPAVGGFWSHCGWNSTLESIGQGVPMICRPFSGDQKVNARYLECVWKIGIQVEGELDRGVVERAVKRLMVDEEGEEMRKRAFSLKEQLRASVKSGGSSHNSLEEFVHFIRTL
B6: AtUGT73B4: UDP-glycosyl transferase from Arabidopsis thaliana, amino acid sequence SEQ ID NO: 10 (protein, listed as Arabidopsis thaliana)
chain: MNREQIHILFFPFMAHGHMIPLLDMAKLFARRGAKSTLLTTPINAKILEKPIEAFKVQNPDLEIGIKILNFPCVELGLPEGCENRDFINSYQKSDSFDLFLKFLFSTKYMKQQLESFIETTKPSALVADMFFPWATESAEKIGVPRLVFHGTSSFALCCSYNMRIHKPHKKVASSSTPFVIPGLPGDIVITEDQANVTNEETPFGKFWKEVRESETSSFGVLVNSFYELESSYADFYRSFVAKKAWHIGPLSLSNRGIAEKAGRGKKANIDEQECLKWLDSKTPGSVVYLSFGSGTGLPNEQLLEIAFGLEGSGQNFIWVVSKNENQVGTGENEDWLPKGFEERNKGKGLIIRGWAPQVLILDHKAIGGFVTHCGWNSTLEGIAAGLPMVTWPMGAEQFYNEKLLTKVLRIGVNVGATELVKKGKLISRAQVEKAVREVIGGEKAEERRLRAKELGEMAKAAVEEGGSSYNDVNKFMEELNGRK

Tested on: CN3 yeast strain host cells
Experiment: Detection of glycosylated cannabinoids and cannabinoid precursors in yeast cells expressing UDP-glycosyl transferase (HPLC-MS)
Type: cell-based
Set-up: key to CBDA-glc / OLA-glc / CBGA-glc / CBGA-(glc)2 / CBD-glc / CBD-(glc)2 / OLA-(glc)2 / CBGA-glucuronic acid: (+) represents the lowest detected quantities; (++), (+++), and (++++) signify relative increasing intermediate detected levels; (++), (+++), and (++++) signify relative increasing intermediate detected levels; (++), (+++), and (++++) signify relative increasing intermediate detected levels; (+++++) represents the highest detected quantities; No detectable levels of a glycosylated cannabinoid compound or glycosylated cannabinoid precursor compound are indicated by “n.d.”
Details: for production of glycosylated cannabinoids or cannabinoid precursor compounds: pellet or supernatant of recombinant yeast host cells transformed with the UGT; for CBD-glc: 0.5 g/L CBD
Text: CN3 yeast strain host cells were transformed as described in Example 1 with one of the following heterologous UGT genes: (1) AtUGT73C6, (2) AtUGT73B4, (3) AtUGT71 D1, (4) AtUGT76E12, (5) AtUGT88A1, (6) HaUGT76G1-L, (7) At5g49690, (8) AtUGT76C4, (9) CsUGT73C6, (10) SrUGT76C1, (11) AtUGT85A3, (12) AtUGT73B1, (13) Atg65550, (14) AtUGT76B1, (15) ATUGT76B1, (16) CsUGT75B2, (17) CsUGT73B4, (18) CsUGT73B1, (19) CsUGT75D1-DN11028, and (20) CsUGT71D1-DN48028. The transformed host cells were pre-grown overnight in yeast extract peptone dextrose (YPD) growth medium and then back diluted into yeast extract peptone galactose (YPG) to OD600 = 0.2. […] Strains were incubated for 20 h at 28° C. rotating at 600 RPM in an EPOCH|2 microplate reader (BioTek). Subsequently, samples were treated with an extraction solvent (80 % Acetonitrile, 20 % Methanol) for 1 hour rotating at 100 RPM. After 20 minutes centrifugation at 12,000 RPM, the supernatant was filtered with a basix 13 mm syringe filter (0.22 µm pore size, Nylon membrane) and transferred to a new tube for further analysis.
Glycosylated cannabinoid compounds and glycosylated cannabinoid precursor compounds were assayed in the supernatant and the cellular pellet employing HPLC and HPLC-MS analysis. HPLC and HPLC-MS analysis was carried out as described below to detect the following glycosylated cannabinoid and cannabinoid precursor compounds: CBGA monoglucoside, CBGA diglucoside, CBDA monoglucoside, CBDA diglucoside, CBGA glucuronic acid, CBD monoglucoside, CBD diglucoside, olivetolic acid monoglucoside (“OliAcid monoglucoside”), olivetolic acid diglucoside (“OliAcid diglucoside”).
HPLC analysis was carried out on an Agilent Technologies 1290 Infinity system, consisting of a vacuum degasser, a binary pump, a thermostated autosampler, a thermostated column compartment and a diode array detector (DAD). A Zorbax Eclipse Plus EC-18 column (2.1 × 50 mm, 1.8 µm, Agilent, USA) was used with a mobile phase composed of 0.1% formic acid in both (A) water with 0.2 % Formic Acid and (B) Acetonitrile with 0.2 % Formic Acid. The chromatographic conditions were set as follows: 0.0-8.0 min linear gradient from 5 to 95% B; 8.1-9.09 min […], 9.10-11.0 min 5 to 95% A for equilibration of the column with the initial conditions. The flow rate was set at 0.4 ml/min. The column temperature was set at 40° C. The sample injection volume was 5 µL. The UV/DAD acquisitions were carried out in the range 190-400 nm and chromatograms were acquired at 265 and 350 nm.
HPLC-MS analysis was carried out to confirm the identity of the HPLC peaks using an Agilent Technologies 6530 Accurate-Mass quadrupole time of flight (QToF) mass spectrometer operating in negative ionization (ESI -) mode. The mass spectrometer experimental parameters were set as follows: the capillary voltage was 3.5 kV, the nebulizer (N2) pressure was 35 psi, the drying gas temperature was 350° C., the drying gas flow was 11 L/min and the skimmer voltage was 65 V. Data were acquired by Agilent Mass Hunter software. The mass spectrometer was operated in full-scan mode in the m/z range 50-1100. Extracted ion chromatograms (EICs) were obtained with an accuracy of 10 ppm m/z from total ion chromatogram (TIC) employing the m/z corresponding to the molecular ions [M-H]^- 385.1504 for Olivetolic Acid Mono-Glucoside, 547.2032 for Olivetolic Acid di-Glucoside, 521.2756 for CBGA Mono-Glucoside, 683.3284 for CBGA Di-Glucoside, 535.2549 for CBGA Glucuronic Acid, 519.2600 for CBDA Mono-Glucoside, 475.2701 for CBD Mono-Glucoside, 637.3302 for CBD Di-Glucoside.
The glycosylated cannabinoid compounds and glycosylated cannabinoid precursor compounds were detected in a relative and semi-quantitative fashion. […]

[1] = 20 h growth, detected in PELLET, 0.05 mM hexanoic acid
[2] = 20 h growth, detected in SUPERNATANT, 0.2 mM hexanoic acid

Row | Molecule | OLA-glc [1] | production of glycosylated cannabinoids or cannabinoid precursor compounds | OLA-glc [2] | CBGA-glc [1] | CBDA-glc [1] | CBGA-glc [2] | CBGA-(glc)2 [1] | CBGA-glucuronic acid [1] | OLA-(glc)2 [1] | CBD-glc (20 h growth, detected in PELLET) | OLA-(glc)2 [2] | CBD-glc (20 h growth, detected in SUPERNATANT)
1 | B1 | ++ | detected | – | – | – | – | – | – | – | – | – | –
2 | B2 | ++ | detectable | ++ | – | – | – | – | – | – | – | – | –
3 | B3 | + | detected | – | ++ | – | – | – | – | – | – | – | –
4 | B4 | ++ | detected | – | – | ++ | – | – | – | – | – | – | –
5 | B5 | +++ | detected | +++ | +++ | – | + | – | – | – | – | – | –
6 | B6 | ++++ | detected | +++++ | ++++ | – | ++ | ++ | ++ | ++ | ++ | ++ | ++
